Assay results from the DeepSol protein solubility set.

Assay: soluble on expression in E. coli; label from the status in PepcDB or PDB records

Sequence | soluble on expression in E. coli
MDNEMNYGSDYKFIPATSIESGHGIEVLRDLFCYTIQIVNICFVGNPETNDFVLVDAGMPKCANEIISIAKDRFGTNSRPKAIILTHGHFDHVGGIIELIKHWDVHVYAHQMEIPFLTGQQSYPEPDPTVEGGMVAKMSPLFPNEPIDLGNNVKALPTDGTVPHMPEFRWIHTPGHTPGHISLFREKDRTLIAGDAFVTVKQEYLYKVITQEQEISGPPRYLTTDWKAAKESVLKLEKLKPLTAVTGHGIPMSGELLSTSLKTLVQEFDKIAVPDYGKYIDKKMHLEHHHHHH | soluble
GPGSMRVNDSITVQQLADEYCITSVVECDATGSVQPRAVALDSPLDVLHGGKYYIARRDVKHFAREPRVTFRGKVTVREFNATHGVIGREGETNANRGQAVAADPVGVAPSRKRPEREEDLFDSGTRTEIYAKEYEFVPFVGDLYNDGRNGMIHLKDVKKLCESVDLDEVEFRARHVQAEKILTHAKQLLLSYADGNGGRTSPEY | not soluble
MGSDKIHHHHHHMIVVLKPGSTEEDIRKVVKLAESYNLKCHISKGQERTVIGIIGDDRYVVADKFESLDCVESVVRVLKPYKLVSREFHPEDTVIDLGDVKIGNGYFTIIAGPCSVEGREMLMETAHFLSELGVKVLRGGAYKPRTSPYSFQGLGEKGLEYLREAADKYGMYVVTEALGEDDLPKVAEYADIIQIGARNAQNFRLLSKAGSYNKPVLLKRGFMNTIEEFLLSAEYIANSGNTKIILCERGIRTFEKATRNTLDISAVPIIRKESHLPILVDPSHSGGRRDLVIPLSRAAIAVGAHGIIVEVHPEPEKALSDGKQSLDFELFKELVQEMKKLADALGVKVN | soluble
YRFSDFEMGLLQTHAEMAERMVNEIGGEHLEIRVLAEITELLQERNEELSPFLTRVLSMATELIGADTGSIAIVQERDGEKWLVVEDEEGTIVGAKNKSWLKKYIPPFRIGGHELPAEERSLTGYVAWSKQPKIIAHVADEQGGEGFHRSMHELIKSEIAVPIVCDDEVIAVVCLNSLKPAWFTEEHKRILQIIDRLTSRHISDVQRIERLEGEVTRLKTDVAYKDPQISSYR | not soluble
MTDKKPVIVYGVSGYTGRLVCEYLREFNIPFIAAGRDKKRIQEVLDRIPGLDTVDHEVVEVEHTVPALTELFSGARVVSNMVGPFIKHGAIVVEAALAAGCHYTDTTGEQDWVLDVQAKFGEKFAEKGLLLSPGVAQMYTTGEIAANIAL | not soluble
MGSDKIHHHHHHMNQNLSSYWIFYTVANAGNISKAAKELYISQPAISKSIQKLEDGLECKLFSRSSRGVVLTDEGRLLYDHVSEAFEALNEGEEKLKRSIELGVGQLKIGVSSTLCKYMLLPYLKEFIHRNPHISISIECQSTNETLKLLDDDKIDIGLIGKPASLKTFNFYYLDNIEDIFVTTKDYLRNLSARGVKKSEILQNSTLMLLDKGNMTRKYIDDYLQENQIHVKDSIDISNMDLLIDFAKIGVGVACVIKSIVSKELADGTLIEIPLGIPIHKREVGFAYKESSKLSTSLQTFIKFYESYTPEDF | not soluble
MAHHHHHHMGKKAEFARSRFKEVRQKREERMQRSRTERDRRHGIDKLERKIGKVVVQRPLPNEAQQALLLAQFAQACRLVAPSTDMCILMRHYAKVAEAAEQKSKSTTMVTTSAPSAKSTTRKRKRDEAEEEEEEAPAAGATFLDTVADALLQTQNAPAVIEEAAASAKDGENALDDDDDDDDTVTVLQDILQDDNGRRVVATLLASLNAVHSSKCEAVAKAVLEQFEENEHLPQHHVACRVMSALAQFGSDPTRQGVLNLLRQRSTTIEGVERLLSDRHTAGTIEQLLKSYSRETAAWLCEALSLSTPVTSPSAAEAGGKKKKAAKQRDAAAEETASGERITTEKLMELVNGPVSGQVLLQLLHTDARRELLKRLPIVELLRSKRGTTFLTQLLMSTASVASSKGDEGREAEAVALFSDVLERLGNDLGEMAIDKRANFVVQALIQLLPAMGPQSAKQLERLERGLGGAAGISALVAHGNGVHVVLSLIDAALTLSSESAVEGLAEQLVTRQNVTDLLYHKHGSLVVRRLMPLISRKASKVGRLLQGMVEQDFSNLVYTEAGNLVVTAYLTALGKSGASLLAQKLAGGEELLSMCRSPYASHVVFTLFELVDPITHTLLCNALKAHVLPLSIHVNGRFIVEKMIAASRDVRESVSRQFLSLAQERGTQHVLCALLARMDARGKQACVEKTIMPNLTALATHQCGSIVLQKLMQAEPTVLSAVRQRLSANSLVRSDLAQNFFGKFVVQIAQQPEQEQPQ | soluble
MGSDKIHHHHHHAREAEFKKIKESWTLQADGTQVYRQSKVLTLYTHTAMNRTYGESFITYDPRYQTLQIHESYTRQKDGNIVKTPANALVEVLPSAAANAPAFNALREMVVVHTGLELGATIYLDYSITTKPGYLPGIQICRLLEHSSPVKEYEISITVPRGQHLEYALNNHKEKASVTESEGMKQVSWTLKNLPALSREPQVSVIGGDLPLLTATTEEKPLSFLTSQWQPEGDAGIRALAGKLTAGAKDDKEKVTAIRDYVIDNLYYSSLPLAESGYRIRPAAEVIRSAYGTEAEKANLMAALLKAAGLKAGIGAVCAPSENTASLGVGSIRELFVWTDAGGSQQALSLKGKTPSAVSWQKDYAYVASLTQPFELNLPPVTLRKDYALQPDAANAKDGYLVFTLPVERGSLAGSQYVRFNSKRTSNLLLPGLADESFTYTVDTPAGMEPVTRPMEKKMDNAVGTLTISIRPEGAKTRVIRSLKLKKQMIRPADYAAFRQLMTEYGAVDGLTLVYRKPLP | not soluble
NDTVLIAGAGHAGFQVAVSLRQAKYPGRIALINDEKHLPYQRPPLSKAYLKSGGDPNSLMFRPEKFFQDQAIELISDRMVSIDREGRKLLLASGTAIEYGHLVLATGARNRMLDVPNASLPDVLYLRTLDESEVLRQRMPDKKHVVVIGAGFIGLEFAATARAKGLEVDVVELAPRVMARVVTPEISSYFHDRHSGAGIRMHYGVRATEIAAEGDRVTGVVLSDGNTLPCDLVVVGVGVIPNVEIAAAAGLPTAAGIIVDQQLLTSDPHISAIGDCALFESVRFGETMRVESVQNATDQARCVAARLTGDAKPYDGYPWFWSDQGDDKLQIVGLTAGFDQVVIRGSVAERSFSAFCYKAGKLIGIESVNRAADHVFGRKILPLDKSVTPEQAADLSFDLKKAAA | soluble
MAELVPFAVPIESDKTLLVWELSSGPTAEALHHSLFTAFSQFGLLYSVRVFPNAAVAHPGFYAVIKFYSARAAHRAQKACDRKQLFQKSPVKVRLGTRHKAVQHQALALNSSKCQELANYYFGFNGCSKRIIKLQELSDLEERENEDSMVPLPKQSLKFFCALEVVLPSCDCRSPGIGLVEEPMDKVEEGPLSFLMKRKTAQKLAIQKALSDAFQKLLIVVLESGKIAVEYRPSEDIVGVRCEEELHGLIQVPCSPWKQYGQEEEGYLSDFSLEEEEFRLPELD | soluble
MGSDKIHHHHHHMSKKQEEIAIKEQRLLSMMEENELEGICLSRAANFAWLTAGSNNRVVWGQETGAAALVIVEGRKFLVAPQNEIERLMLEQVADLGFEPWTYEWYEDRQQAIARLVGNKKIGSDIPLGNWPVIEAELKRLRFSLTDHEVERAEKLAAICSDDLAAVCQAIVPGWSEWNIQVELSNRLLKQGVRASVLLVGADDRTRFKHPLPTLNPVCNYVIIGLVGEQCGLHMALTRSIYFGRVPEALRQNYNCCLAVERTYWENSVVDADSQKVFQQGINAYADLGHPEEWKRHHQGGAIGYAPREFRAGEGRREVMQDRQMLAWNPTVENTKCEDTCLVTPTGLKSMTTVPSWWPTTTVKAGNINFLRPLILEK | not soluble
MAHHHHHHMTAPITGPMLLGAASVDVLRSMLTLDPFQCLVAQRLCEELSCQRFPKVTLLIFKSMPDPRLLQLRSSVGEEVTVTVSRLNDLRCKFTLGDKANYEHLYNMRTPAKPRTVCTFDIVLPTSRLTGLSRCIDHLIAAAERMVMPRITVEALCCTEQDERRKIVREEKDHWDFLFHGLRVGSFITVLRRLPSITAMHAPPIPHDYTFSAALSNPGFVLPSHYCGRLATVPTGAKGVSTPFIAIAEPAIPTGAKVSIRCQLIRGNQGQILGGGYYFGVCTPSFHWKHKDLNVHTGEVWALHDMDDSPWRLRHLRPDATFPVAAEPRCIIVSGDIIRLYIDRTARVMHAFRTPVNGDEIPLGLHL | not soluble
GMEPIMRNPEDALLDSWHQNAQAWIDAVRHGAIESRRQVTDQAILLAILGRQPERVLDLGCGEGWLLRALADRGIEAVGVDGDRTLVDAARAAGAGEVHLASYAQLAEAKVPVGKDYDLICANFALLHQDIIELLSAMRTLLVPGGALVIQTLHPWSVADGDYQDGWREESFAGFAGDWQPMPWYFRTLASWLNALDMAGLRLVSLQEPQHPQSAVPQSLLMVAERH | soluble
